Measured values from paper PMC2645937.

Experiments:
[1] = molecular target: E. coli ribonucleotide reductase large subunit α2 (E. coli) (UniProt P00452); experiment: cross-linking
[2] = molecular target: ribonucleotide reductase β2 (Escherichia coli) (UniProt P69924); details: cited from earlier work
[3] = molecular target: DAN-β2(V351C): (His)6-β2-C268S/C305S/V351C labelled with dimethylaminonaphthalene (E. coli); experiment: other fluorescence titration

Row | percent cross-linked [1] [%] | Molecule | other results
1 | 19 | BP-β2(V365C): (His)6-β2-C268S/C305S/V365C labelled with benzophenone (enzyme) | 
2 | 9 | BP-β2(Y356C): (His)6-β2-C268S/C305S/Y356C labelled with benzophenone (enzyme) | 

The remaining lines, values behind:

Row | Molecule | percent cross-linked [1] [%] | other results
3 | ribonucleotide reductase α2 (from UniProt P00452) |  | Kd [2]: 200 nM
4 | E. coli ribonucleotide reductase large subunit α2 (enzyme) MNQNLLVTKRDGSTERINLDKIHRVLDWAAEGLHNVSISQVELRSHIQFYDGIKTSDIHETIIKAAADLISRDAPDYQYLAARLAIFHLRKKAYGQFEPPALYDHVVKMVEMGKYDNHLLEDYTEEEFKQMDTFIDHDRDMTFSYAAVKQLEGKYLVQNRVTGEIYESAQFLYILVAACLFSNYPRETRLQYVKRFYDAVSTFKISLPTPIMSGVRTPTRQFSSCVLIECGDSLDSINATSSAIVKYVSQRAGIGINAGRIRALGSPIRGGEAFHTGCIPFYKHFQTAVKSCSQGGVRGGAATLFYPMWHLEVESLLVLKNNRGVEGNRVRHMDYGVQINKLMYTRLLKGEDITLFSPSDVPGLYDAFFADQEEFERLYTKYEKDDSIRKQRVKAVELFSLMMQERASTGRIYIQNVDHCNTHSPFDPAIAPVRQSNLCLEIALPTKPLNDVNDENGEIALCTLSAFNLGAINNLDELEELAILAVRALDALLDYQDYPIPAAKRGAMGRRTLGIGVINFAYYLAKHGKRYSDGSANNLTHKTFEAIQYYLLKASNELAKEQGACPWFNETTYAKGILPIDTYKKDLDTIANEPLHYDWEALRESIKTHGLRNSTLSALMPSETSSQISNATNGIEPPRGYVSIKASKDGILRQVVPDYEHLHDAYELLWEMPGNDGYLQLVGIMQKFIDQSISANTNYDPSRFPSGKVPMQQLLKDLLTAYKFGVKTLYYQNTRDGAEDAQDDLVPSIQDDGCESGACKI |  | Kd [3]: 380 nM
